These results are taken from publication PMC3464217.

In the test the target is recombinant gp160 (HIV (IIIB or MN/LAI)). Description: SPR. The conditions noted are these: bispecific antibody.

Turning to “HY-[Fx2-Hx4-Fx2]-7B2 (from UniProt P01857)”, the Ka worked out at 4.6e+10 M⁻¹ and the Kd was 0.021 nM.

On to HY-[Hx4]-7B2 (from UniProt P01857), for which the Ka turned out to be 1.7e+10 M⁻¹.
